Assay results: publication PMC2745981

Biological target: GFP-tagged GluR1 (ΔL2–3) (UniProt P19490)
Assay: co-IP

Chain of UniProt P19490 (P19490 19-907, stated change not applied): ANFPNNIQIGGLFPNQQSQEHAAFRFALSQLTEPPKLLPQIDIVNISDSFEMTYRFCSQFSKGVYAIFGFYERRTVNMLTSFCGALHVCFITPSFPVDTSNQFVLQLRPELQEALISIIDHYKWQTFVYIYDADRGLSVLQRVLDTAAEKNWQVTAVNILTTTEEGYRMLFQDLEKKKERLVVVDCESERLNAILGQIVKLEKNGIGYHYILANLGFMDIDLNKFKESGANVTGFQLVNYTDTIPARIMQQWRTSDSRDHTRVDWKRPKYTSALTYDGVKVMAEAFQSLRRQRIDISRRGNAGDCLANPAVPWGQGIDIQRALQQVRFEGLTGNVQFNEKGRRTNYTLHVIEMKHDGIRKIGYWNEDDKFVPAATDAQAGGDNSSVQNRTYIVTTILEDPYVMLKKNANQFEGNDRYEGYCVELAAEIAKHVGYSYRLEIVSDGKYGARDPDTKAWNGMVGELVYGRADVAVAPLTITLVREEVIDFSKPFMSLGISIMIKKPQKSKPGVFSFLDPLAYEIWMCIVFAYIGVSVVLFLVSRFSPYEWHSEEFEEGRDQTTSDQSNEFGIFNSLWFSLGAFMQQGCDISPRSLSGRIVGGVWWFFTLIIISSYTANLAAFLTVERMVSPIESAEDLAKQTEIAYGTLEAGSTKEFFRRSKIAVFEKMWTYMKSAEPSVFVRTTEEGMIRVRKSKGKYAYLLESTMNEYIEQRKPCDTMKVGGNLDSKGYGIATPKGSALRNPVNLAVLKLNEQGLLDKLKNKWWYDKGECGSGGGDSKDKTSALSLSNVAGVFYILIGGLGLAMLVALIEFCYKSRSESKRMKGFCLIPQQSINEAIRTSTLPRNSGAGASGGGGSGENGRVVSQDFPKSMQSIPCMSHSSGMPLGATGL

- interaction, percent of control (wild-type GluR1): 78 % of control
Substance: HA-tagged p62 (from UniProt Q13501 1-440) (natural protein)
